B1: FGF18_Fab tanezumab (HL) (other)
heavy: EENVDFRIHVENQTRARDDVSRKQLRLYQLYSRTSGKHIQVLGRRISARGEDGDKYAQLLVETDTFGSQVRIKGKETEFYLCMNRKGKLVGKPDGTSKECVFIEKVLENNYTALMSAKYSGWYVGFTKKGRPRKGPKTRENQQDVHFMKRYPKGQPELQKPFKYTTVTKGGGGSGGGGSQVQLQESGPGLVKPSETLSLTCTVSGFSLIGYDLNWIRQPPGKGLEWIGIIWGDGTTDYNSAVKSRVTISKDTSKNQFSLKLSSVTAADTAVYYCARGGYWYATSYYFDYWGQGTLVTVSSASTKGPSVFPLAPSSKSTSGGTAALGCLVKDYFPEPVTVSWNSGALTSGVHTFPAVLQSSGLYSLSSVVTVPSSSLGTQTYICNVNHKPSNTKVDKKVEPKSC
light: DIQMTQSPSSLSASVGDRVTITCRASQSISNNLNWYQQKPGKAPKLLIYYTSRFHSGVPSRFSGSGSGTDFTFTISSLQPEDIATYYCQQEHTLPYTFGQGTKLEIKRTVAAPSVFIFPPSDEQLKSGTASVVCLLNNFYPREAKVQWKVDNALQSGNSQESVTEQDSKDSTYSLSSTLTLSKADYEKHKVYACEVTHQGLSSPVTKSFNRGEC
B2: FGF18_Fab fulranumab (LH) (other)
light: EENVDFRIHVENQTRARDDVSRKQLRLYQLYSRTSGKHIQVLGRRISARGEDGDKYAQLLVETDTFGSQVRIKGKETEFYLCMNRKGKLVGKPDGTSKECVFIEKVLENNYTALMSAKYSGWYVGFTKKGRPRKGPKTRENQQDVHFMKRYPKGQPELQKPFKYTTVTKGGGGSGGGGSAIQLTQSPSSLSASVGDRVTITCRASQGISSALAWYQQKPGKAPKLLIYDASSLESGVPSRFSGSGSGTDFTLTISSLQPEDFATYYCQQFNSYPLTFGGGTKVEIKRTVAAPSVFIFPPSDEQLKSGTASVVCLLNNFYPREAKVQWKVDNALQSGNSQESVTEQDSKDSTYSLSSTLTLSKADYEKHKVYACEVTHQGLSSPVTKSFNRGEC
heavy: EVQLVESGGGLVQPGGSLRLSCAASGFTLRSYSMNWVRQAPGKGLEWVSYISRSSHTIFYADSVKGRFTISRDNAKNSLYLQMDSLRDEDTAMYYCARVYSSGWHVSDYFDYWGQGILVTVSSASTKGPSVFPLAPSSKSTSGGTAALGCLVKDYFPEPVTVSWNSGALTSGVHTFPAVLQSSGLYSLSSVVTVPSSSLGTQTYICNVNHKPSNTKVDKKVEPKSC
B3: FGF18 SEED tanezumab (MBE626) (other)
chain: EENVDFRIHVENQTRARDDVSRKQLRLYQLYSRTSGKHIQVLGRRISARGEDGDKYAQLLVETDTFGSQVRIKGKETEFYLCMNRKGKLVGKPDGTSKECVFIEKVLENNYTALMSAKYSGWYVGFTKKGRPRKGPKTRENQQDVHFMKRYPKGQPELQKPFKYTTVTKGGSGGSGSGSEPKSSDKTHTCPPCPAPEAAGGPSVFLFPPKPKDTLMISRTPEVTCVVVDVSHEDPEVKFNWYVDGVEVHNAKTKPREEQYNSTYRVVSVLTVLHQDWLNGKEYKCKVSNKALPAPIEKTISKAKGQPFRPEVHLLPPSREEMTKNQVSLTCLARGFYPKDIAVEWESNGQPENNYKTTPSRQEPSQGTTTFAVTSKLTVDKSRWQQGNVFSCSVMHEALHNHYTQKTISLSPGK
heavy: QVQLQESGPGLVKPSETLSLTCTVSGFSLIGYDLNWIRQPPGKGLEWIGIIWGDGTTDYNSAVKSRVTISKDTSKNQFSLKLSSVTAADTAVYYCARGGYWYATSYYFDYWGQGTLVTVSSASTKGPSVFPLAPSSKSTSGGTAALGCLVKDYFPEPVTVSWNSGALTSGVHTFPAVLQSSGLYSLSSVVTVPSSSLGTQTYICNVNHKPSNTKVDKKVEPKSCDKTHTCPPCPAPEAAGGPSVFLFPPKPKDTLMISRTPEVTCVVVDVSHEDPEVKFNWYVDGVEVHNAKTKPREEQYNSTYRVVSVLTVLHQDWLNGKEYKCKVSNKALPAPIEKTISKAKGQPREPQVYTLPPPSEELALNELVTLTCLVKGFYPSDIAVEWLQGSQELPREKYLTWAPVLDSDGSFFLYSILRVAAEDWKKGDTFSCSVMHEALHNRFTQKSLDRSPGK
light: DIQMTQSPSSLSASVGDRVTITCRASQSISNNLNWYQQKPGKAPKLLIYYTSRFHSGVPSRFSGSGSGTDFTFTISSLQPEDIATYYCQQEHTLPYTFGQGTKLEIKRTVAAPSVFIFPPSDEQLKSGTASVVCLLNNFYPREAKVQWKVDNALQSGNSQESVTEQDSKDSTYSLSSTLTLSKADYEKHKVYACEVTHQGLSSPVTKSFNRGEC
B4: FGF18_Fab fasinumab (LH) (other)
light: EENVDFRIHVENQTRARDDVSRKQLRLYQLYSRTSGKHIQVLGRRISARGEDGDKYAQLLVETDTFGSQVRIKGKETEFYLCMNRKGKLVGKPDGTSKECVFIEKVLENNYTALMSAKYSGWYVGFTKKGRPRKGPKTRENQQDVHFMKRYPKGQPELQKPFKYTTVTKGGGGSGGGGSDIQMTQSPSSLSASAGDRVTITCRASQAIRNDLGWYQQKPGKAPKRLIYAAFNLQSGVPSRFSGSGSGTEFTLTISSLQPEDLASYYCQQYNRYPWTFGQGTKVEIKRTVAAPSVFIFPPSDEQLKSGTASVVCLLNNFYPREAKVQWKVDNALQSGNSQESVTEQDSKDSTYSLSSTLTLSKADYEKHKVYACEVTHQGLSSPVTKSFNRGEC
heavy: QVQLVQSGAEVKKPGASVKVSCKVSGFTLTELSIHWVRQAPGKGLEWMGGFDPEDGETIYAQKFQGRVTMTEDTSTDTAYMELTSLRSEDTAVYYCSTIFGVVTNFDNWGQGTLVTVSSASTKGPSVFPLAPSSKSTSGGTAALGCLVKDYFPEPVTVSWNSGALTSGVHTFPAVLQSSGLYSLSSVVTVPSSSLGTQTYICNVNHKPSNTKVDKKVEPKSC
B5: FGF18_Fab fulranumab (HL) (other)
heavy: EENVDFRIHVENQTRARDDVSRKQLRLYQLYSRTSGKHIQVLGRRISARGEDGDKYAQLLVETDTFGSQVRIKGKETEFYLCMNRKGKLVGKPDGTSKECVFIEKVLENNYTALMSAKYSGWYVGFTKKGRPRKGPKTRENQQDVHFMKRYPKGQPELQKPFKYTTVTKGGGGSGGGGSEVQLVESGGGLVQPGGSLRLSCAASGFTLRSYSMNWVRQAPGKGLEWVSYISRSSHTIFYADSVKGRFTISRDNAKNSLYLQMDSLRDEDTAMYYCARVYSSGWHVSDYFDYWGQGILVTVSSASTKGPSVFPLAPSSKSTSGGTAALGCLVKDYFPEPVTVSWNSGALTSGVHTFPAVLQSSGLYSLSSVVTVPSSSLGTQTYICNVNHKPSNTKVDKKVEPKSC
light: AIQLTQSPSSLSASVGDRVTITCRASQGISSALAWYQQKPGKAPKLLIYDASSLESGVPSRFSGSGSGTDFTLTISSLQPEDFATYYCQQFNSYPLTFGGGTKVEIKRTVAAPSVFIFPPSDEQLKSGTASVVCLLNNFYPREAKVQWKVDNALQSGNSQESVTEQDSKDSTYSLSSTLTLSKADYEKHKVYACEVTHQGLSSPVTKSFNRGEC
B6: FGF18_Fab tanezumab (LH) (other)
light: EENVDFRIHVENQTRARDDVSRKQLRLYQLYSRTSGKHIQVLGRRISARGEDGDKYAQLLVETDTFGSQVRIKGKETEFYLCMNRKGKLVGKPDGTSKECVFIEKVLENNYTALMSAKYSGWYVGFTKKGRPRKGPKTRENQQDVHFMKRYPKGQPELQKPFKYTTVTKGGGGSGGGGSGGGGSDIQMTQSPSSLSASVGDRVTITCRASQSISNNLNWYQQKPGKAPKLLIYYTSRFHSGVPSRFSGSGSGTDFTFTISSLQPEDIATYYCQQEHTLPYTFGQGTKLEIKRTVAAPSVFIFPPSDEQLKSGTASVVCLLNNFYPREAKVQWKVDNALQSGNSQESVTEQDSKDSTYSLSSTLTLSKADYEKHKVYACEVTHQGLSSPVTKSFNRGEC
heavy: QVQLQESGPGLVKPSETLSLTCTVSGFSLIGYDLNWIRQPPGKGLEWIGIIWGDGTTDYNSAVKSRVTISKDTSKNQFSLKLSSVTAADTAVYYCARGGYWYATSYYFDYWGQGTLVTVSSASTKGPSVFPLAPSSKSTSGGTAALGCLVKDYFPEPVTVSWNSGALTSGVHTFPAVLQSSGLYSLSSVVTVPSSSLGTQTYICNVNHKPSNTKVDKKVEPKSC
B7: FGF18_Fab fasinumab (HL) (other)
heavy: EENVDFRIHVENQTRARDDVSRKQLRLYQLYSRTSGKHIQVLGRRISARGEDGDKYAQLLVETDTFGSQVRIKGKETEFYLCMNRKGKLVGKPDGTSKECVFIEKVLENNYTALMSAKYSGWYVGFTKKGRPRKGPKTRENQQDVHFMKRYPKGQPELQKPFKYTTVTKGGGGSGGGGSQVQLVQSGAEVKKPGASVKVSCKVSGFTLTELSIHWVRQAPGKGLEWMGGFDPEDGETIYAQKFQGRVTMTEDTSTDTAYMELTSLRSEDTAVYYCSTIFGVVTNFDNWGQGTLVTVSSASTKGPSVFPLAPSSKSTSGGTAALGCLVKDYFPEPVTVSWNSGALTSGVHTFPAVLQSSGLYSLSSVVTVPSSSLGTQTYICNVNHKPSNTKVDKKVEPKSC
light: DIQMTQSPSSLSASAGDRVTITCRASQAIRNDLGWYQQKPGKAPKRLIYAAFNLQSGVPSRFSGSGSGTEFTLTISSLQPEDLASYYCQQYNRYPWTFGQGTKVEIKRTVAAPSVFIFPPSDEQLKSGTASVVCLLNNFYPREAKVQWKVDNALQSGNSQESVTEQDSKDSTYSLSSTLTLSKADYEKHKVYACEVTHQGLSSPVTKSFNRGEC

For the first assay, the target named is NGF. The assay is described as follows: cell-based or functional assay.
Chain of NGF (P01138 122-241): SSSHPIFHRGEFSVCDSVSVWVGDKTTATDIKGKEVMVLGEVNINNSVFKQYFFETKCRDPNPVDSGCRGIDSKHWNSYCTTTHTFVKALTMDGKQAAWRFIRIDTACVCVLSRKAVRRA
Regarding B1, the “anti-NGF IC50 (nM), U2OS TrkA_p75 assay; construct from expiCHO-S” value (shortened to “anti-NGF IC50 (nM) … from expiCHO-S”) came to 0.84 nM.

With B2, the “anti-NGF IC50 (nM) … from expiCHO-S” value was determined as 1.61 nM.

In the case of B3, the “anti-NGF IC50 (nM) … from expiCHO-S” value turned out to be 0.44 nM.

For the molecule B4, the “anti-NGF IC50 (nM), U2OS TrkA_p75 assay; construct from HEK293” value stood at 0.54 nM and the “anti-NGF IC50 (nM) … from expiCHO-S” value stood at 1.56 nM.

As to B5, the “anti-NGF IC50 (nM) … from expiCHO-S” value is 1.07 nM.

Consider B6, for which the “anti-NGF IC50 (nM), U2OS TrkA_p75 assay; construct from HEK293” value came out at 0.52 nM and the “anti-NGF IC50 (nM) … from expiCHO-S” value turned out to be 0.86 nM.

For the molecule B7, the “anti-NGF IC50 (nM) … from expiCHO-S” value was determined as 1.33 nM.

A further assay addresses FGFR3. Put plainly: cell-based or functional assay.
Turning to B1, the “FGF18 EC50 (nM), BaF3/FGFR3 assay; construct from expiCHO-S” value amounted to 0.05 nM.

Consider B2, for which the “FGF18 EC50 (nM), BaF3/FGFR3 assay; construct from expiCHO-S” value was found to be 0.07 nM.

Take B3: the “FGF18 EC50 (nM), BaF3/FGFR3 assay; construct from expiCHO-S” value was found to be 0.05 nM.

As to B4, the “FGF18 EC50 (nM), BaF3/FGFR3 assay; construct from HEK293” value is 0.27 nM and the “FGF18 EC50 (nM), BaF3/FGFR3 assay; construct from expiCHO-S” value was found to be 0.1 nM.

As for B5, the “FGF18 EC50 (nM), BaF3/FGFR3 assay; construct from expiCHO-S” value stood at 0.06 nM.

Regarding B6, the “FGF18 EC50 (nM), BaF3/FGFR3 assay; construct from HEK293” value is 0.21 nM and the “FGF18 EC50 (nM), BaF3/FGFR3 assay; construct from expiCHO-S” value was 0.08 nM.

For the molecule B7, the “FGF18 EC50 (nM), BaF3/FGFR3 assay; construct from expiCHO-S” value came out at 0.06 nM.

Values taken from patent US20200299347A1 (Merck KGaA, published 2020).
